Data published in paper PMC7545189, “Structural characterization of the ICOS/ICOS-L immune complex reveals high molecular mimicry by therapeutic antibodies” (Nature Communications, 2020).

B1: human ICOS ectodomain (residues 21-138), untagged, disulfide-linked homodimer [human] / human ICOS-L ectodomain (residues 19-248), His-tagged, immobilised on Ni-NTA biosensors [human] (parent)
chain 1: EINGSANYEMFIFHNGGVQILCKYPDIVQQFKMQLLKGGQILCDLTKTKGSGNTVSIKSLKFCHSQLSNNSVSFFLYNLDHSHANYYFCNLSIFDPPPFKVTLTGGYLHIYESQLCCQ
chain 2: DTQEKEVRAMVGSDVELSCACPEGSRFDLNDVYVYWQTSESKTVVTYHIPQNSSLENVDSRYRNRALMSPAGMLRGDFSLRLFNVTPQDEQKFHCLVLSQSLGFQEVLSVEVTLHVAANFSVPVVSAPHSPSQDELTFTCTSINGYPRPNVYWINKTDNSLLDQALQNDTVFLNMRGLYDVVSVLRIARTPSVNIGCCIENVLLQQNLTVGSQTGNDIGERDKITENPVS

Variants of: B1
Assay: BLI
Details: with human ICOS-L ectodomain (residues 19-248), parent: 9.8 nM, read off a plot

| Kd [nM] | Variant |
| --- | --- |
| 2.7 | chain 1 EINGSANYEMFIFHNGGVQILCKYPDIVQQFKMQLLKGGQILCDLTKTKGSGNTVSIKSLKFCHSQLSNNSVSFFLYNLDHSHANYYFCQLSIFDPPPFKVTLTGGYLHIYESQLCCQ [chain 1 N90Q] |

Same assay, conditions: with human ICOS-L ectodomain (residues 19-248), parent: 0.0033, read off a plot

| koff [s⁻¹] | Variant |
| --- | --- |
| 0.0021 | chain 1 EINGSANYEMFIFHNGGVQILCKYPDIVQQFKMQLLKGGQILCDLTKTKGSGNTVSIKSLKFCHSQLSNNSVSFFLYNLDHSHANYYFCQLSIFDPPPFKVTLTGGYLHIYESQLCCQ [chain 1 N90Q] |

Same assay, conditions: with human ICOS-L ectodomain (residues 19-248), parent: 3.3e+05, read off a plot

| kon [M⁻¹ s⁻¹] | Variant |
| --- | --- |
| 730000 | chain 1 EINGSANYEMFIFHNGGVQILCKYPDIVQQFKMQLLKGGQILCDLTKTKGSGNTVSIKSLKFCHSQLSNNSVSFFLYNLDHSHANYYFCQLSIFDPPPFKVTLTGGYLHIYESQLCCQ [chain 1 N90Q] |
